Reference: article PMC7352202, “An Integrative Synthetic Biology Approach to Interrogating Cellular Ubiquitin and Ufm Signaling” (International Journal of Molecular Sciences, 2020)

Biological target: T1, GST-UFL1 (human, UniProt O94874 1-794)
T1 construct: UFL1, human, E3 ligase for ufmylation; purified recombinant GST-UFL1; The end of the GST tag is read from the printed name 'GST-UFL1'; source: E. coli BL21, purified (glutathione beads); not shown: GST, N-terminal, kept
T1 sequence (looked up): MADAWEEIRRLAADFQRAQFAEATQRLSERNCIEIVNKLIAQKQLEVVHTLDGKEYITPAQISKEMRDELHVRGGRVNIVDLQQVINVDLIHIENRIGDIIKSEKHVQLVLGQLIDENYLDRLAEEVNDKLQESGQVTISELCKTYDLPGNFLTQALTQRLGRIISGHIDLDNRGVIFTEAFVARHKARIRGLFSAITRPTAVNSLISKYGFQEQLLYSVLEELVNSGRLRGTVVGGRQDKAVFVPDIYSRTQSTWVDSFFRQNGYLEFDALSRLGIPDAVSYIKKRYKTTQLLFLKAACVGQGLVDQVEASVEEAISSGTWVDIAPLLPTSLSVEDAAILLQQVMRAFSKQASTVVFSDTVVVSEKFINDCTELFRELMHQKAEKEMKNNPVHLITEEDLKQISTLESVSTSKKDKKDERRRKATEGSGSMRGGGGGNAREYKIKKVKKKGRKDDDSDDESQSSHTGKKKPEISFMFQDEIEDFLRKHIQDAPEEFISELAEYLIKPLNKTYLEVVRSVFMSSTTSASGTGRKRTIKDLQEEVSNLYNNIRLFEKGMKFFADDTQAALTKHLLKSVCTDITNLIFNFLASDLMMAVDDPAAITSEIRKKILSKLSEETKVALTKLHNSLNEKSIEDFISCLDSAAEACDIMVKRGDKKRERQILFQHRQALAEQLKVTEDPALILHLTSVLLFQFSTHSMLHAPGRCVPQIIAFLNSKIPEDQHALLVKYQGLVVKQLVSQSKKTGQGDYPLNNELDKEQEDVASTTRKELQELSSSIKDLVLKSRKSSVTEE
Assay: pull-down; GST pull-down: purified GST-UFL1 (20 ug) and substrate-Flag-His6 (20 ug) with Glutathione Sepharose 4B beads, 4 °C overnight, 20 mM Tris-Cl, 100 mM NaCl, 5 mM MgCl2, 1 mM EDTA, 1 mM DTT, 0.5% NP-40, 10 ug/mL BSA, pH 7.5; immunoblot
Conditions: both partners purified

binding result: binds
B1: MT1M-Flag-His6 (natural protein)
chain: not shown
notes: MT1M, metallothionein family, human; purified recombinant MT1M-Flag-His6; The ends of the tags are read from the printed name; source: E. coli BL21, purified (Ni-NTA beads); not shown: Flag, C-terminal, kept; His6, C-terminal, kept
